Common to all, as to details: both partners purified
Assay [1] deals with T1, α-synuclein amyloid fibrils (unlabeled) (UniProt P37840 1-140). The assay can be described thus: microfluidic diffusional sizing; dissociation of bound αB-c followed in a saturated α-syn fibril solution at 7 °C.
Assay [2] has as its target T1, α-synuclein amyloid fibrils (unlabeled). The assay can be described thus: microfluidic diffusional sizing; kinetics in free solution, 1 μM GFP-αB-c with 10 μM α-syn fibrils, 20 °C, PBS pH 7.2, 0.1 % NaN3; apparent constants, KD from koff/kon.
For assay [3] the target is unchanged. The assay can be described thus: microfluidic diffusional sizing; kinetics in free solution, 1 μM GFP-αB-c with 10 μM α-syn fibrils, 7 °C, PBS pH 7.2, 0.1 % NaN3; koff calculated from the association kinetics.
The target is the same in assay [4]. The assay can be described thus: microfluidic diffusional sizing; equilibrium titration, 1 to 100 μM α-syn fibrils with 1 μM αB-c, 25 °C, 3 d, PBS pH 7.2, 0.1 % NaN3; noncooperative single-site model, binding-site ratio 1:5.4 fixed; apparent.
Assay [5] has the same target. The assay can be described thus: microfluidic diffusional sizing; global analysis of the kinetics at 7, 10, 17, 20, 25, 30 and 37 °C: binding-site concentration fitted globally; nonlinear van't Hoff analysis of KD,app, reference temperature 310 K (37 °C value not used).
Assay [6] shares this target. The assay can be described thus: microfluidic diffusional sizing; kinetics in free solution, 1 μM GFP-αB-c with 10 μM α-syn fibrils, 25 °C, PBS pH 7.2, 0.1 % NaN3; aliquots over 50 to 150 h; second-order rate equation; apparent constants, KD from koff/kon, per monomer equivalent of αB-c.

We go through 1 molecule from PMC8463877, “The binding of the small heat-shock protein αB-crystallin to fibrils of α-synuclein is driven by entropic forces” (Proceedings of the National Academy of Sciences of the …, 2021).

B1: GFP-labeled αB-crystallin (αB-c-TEV site-GFP-His tag) (natural protein)
chain: MDIAIHHPWIRRPFFPFHSPSRLFDQFFGEHLLESDLFPTSTSLSPFYLRPPSFLRAPSWFDTGLSEMRLEKDRFSVNLDVKHFSPEELKVKVLGDVIEVHGKHEERQDEHGFISREFHRKYRIPADVDPLTITSSLSSDGVLTVNGPRKQVSGPERTIPITREEKPAVTAAPKK
notes: αB-crystallin, small heat-shock protein; Arrangement as printed: αB-c-TEV site-GFP-His tag; a TEV site lies between αB-c and GFP; Present as a polydisperse ensemble of oligomers; concentrations are in monomer equivalents; also called αB-c-GFP; small heat-shock protein αB-crystallin; not shown: GFP, C-terminal, kept
On to B1, for which the koff (as a rule, the first-order rate constant of dissociation) is 5.6e-05 s⁻¹ in assay [1], 2.6e-05 s⁻¹ in assay [3] and 2.7e-06 s⁻¹ in assay [6]. Besides, the Kd in assay [2] was 4100 ± 1700 nM; in assay [4], 261 ± 76 nM; in assay [6], 373 ± 238 nM. For the same molecule, the dH in assay [5] is 443 ± 107 kJ⋅mol^−1. Further, the “stoichiometry N” value in assay [5] is 5.4 α-syn equivalents per αB-c equivalent. In addition, the kon (usually the rate constant with which the complex forms) in assay [6] worked out at 7.1 ± 2.6 M⁻¹ s⁻¹.
